Test results published in publication PMC8811538, “Pilot scale production, extraction and purification of a thermostable phycocyanin from Synechocystis sp. PCC 6803” (Bioresource Technology, 2022).
Several values for one entry are separate records, joined by “and”; a condition that tells them apart may be missing. Identical values can stand only once. Blank lines part the entries; values can stand above or below the binder they belong to.

Columns and labels:
[1] = target: T1, phycocyanin β-subunit (CpcB) of Te-PC (Thermosynechococcus elongatus BP-1, UniProt P50033 1-172, phycobilin chromophore (chromophorylated; sites not given)); test: SEC; purified, freeze-dried Te-PC resuspended in 15 mM citric acid-trisodium citrate pH 6.0; 250 µL (425 µg Te-PC) on Superdex-200 10/300 GL in 100 mM trisodium citrate, pH 6.0, 8 °C, 0.5 mL/min; absorption at 280 and 615 nm; sizes from molecular weight standards (apparent); peaks about 5% hexamer, 80% trimer, 15% (ɑβ) monomer; conditions: both partners purified
T1 construct: phycocyanin beta-subunit CpcB of Thermosynechococcus elongatus BP-1, expressed from the cpcBACD (TeBACD) operon; source: Synechocystis sp
T1 sequence (looked up): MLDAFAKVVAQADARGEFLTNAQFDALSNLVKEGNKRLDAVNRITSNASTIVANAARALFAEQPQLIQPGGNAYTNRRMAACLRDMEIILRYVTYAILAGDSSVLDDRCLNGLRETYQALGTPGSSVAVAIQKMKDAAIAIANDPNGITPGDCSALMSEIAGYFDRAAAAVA

[2] = target: the molecule itself; test: as above

binding result [1]: binds
B1: phycocyanin ⍺-subunit (CpcA) of Te-PC (natural protein)
chain: not shown
modifications: phycobilin chromophore (chromophorylated; sites not given)
notes: phycocyanin alpha-subunit CpcA of Thermosynechococcus elongatus BP-1, expressed from the cpcBACD (TeBACD) operon; source: Synechocystis sp

B2: thermostable phycocyanin from Thermosynechococcus elongatus BP-1, (ɑβ) monomer (complex)
chain 1: not shown
chain 2: T1 sequence (looked up)
modifications: phycobilin chromophore (chromophorylated; sites not given) | phycobilin chromophore (chromophorylated; sites not given)
notes: phycocyanin alpha-subunit CpcA of Thermosynechococcus elongatus BP-1, expressed from the cpcBACD (TeBACD) operon; phycocyanin beta-subunit CpcB of Thermosynechococcus elongatus BP-1, expressed from the cpcBACD (TeBACD) operon; The construct is described in the supplementary materials and in Puzorjov et al., 2021; also called Te-PC; PC; source: Synechocystis sp
stoichiometry N [2]: 6 and 3
